Assay results taken from patent publication US20230135471A1, “UBIQUITIN VARIANTS WITH IMPROVED AFFINITY FOR 53BP1” (Integrated DNA Technologies, Inc., priority 2021, published 2023).

target: 53BP1 fragment (a.a. 1221-1718) fused to an adenylate cyclase fragment (two-hybrid) (UniProt Q12888); experiment: cell-based or functional assay

Row | Substance | Experiment 1 Average Enrichment | Experiment 1 Rep 1 Enrichment | Experiment 1 Rep 2 Enrichment | Experiment 2 Average Enrichment | Experiment 2 Rep 1 Enrichment | Experiment 2 Rep 2 Enrichment | Percent GFP Positive Rep 1 | Percent GFP Positive Rep 2 | Percent GFP Positive Rep 3
1 | i53 + I61L two-hybrid fusion (designed binder) | 1.06 log2 | 1.1 log2 | 1.02 log2 | 0.67 log2 | 0.75 log2 | 0.59 log2 | 15.9% | 17.6% | 17.2%
2 | i53 + T7C two-hybrid fusion (designed binder) | 1.2 log2 | 1.16 log2 | 1.23 log2 | 0.79 log2 | 0.9 log2 | 0.69 log2 |  |  | 
3 | i53 + N25S two-hybrid fusion (designed binder) | 0.26 log2 | 0.18 log2 | 0.34 log2 | 0.33 log2 | 0.27 log2 | 0.38 log2 |  |  | 
4 | i53 + D52E two-hybrid fusion (designed binder) | 0.28 log2 | 0.43 log2 | 0.14 log2 | 0.04 log2 | -0.3 log2 | 0.37 log2 |  |  | 
5 | i53 + T9I two-hybrid fusion (designed binder) | 0.46 log2 | 0.3 log2 | 0.61 log2 | 0.25 log2 | -0.01 log2 | 0.52 log2 |  |  | 
6 | i53 + R54C two-hybrid fusion (designed binder) | 0.06 log2 | 0.24 log2 | -0.12 log2 | -0.07 log2 | -0.43 log2 | 0.29 log2 |  |  | 
7 | i53 + S20C two-hybrid fusion (designed binder) | -0.08 log2 | -0.36 log2 | 0.2 log2 | 0.05 log2 | -0.1 log2 | 0.21 log2 |  |  | 
8 | i53 + S49P two-hybrid fusion (designed binder) | 0.78 log2 | 0.65 log2 | 0.91 log2 | 0.58 log2 | 0.71 log2 | 0.44 log2 |  |  | 
9 | i53 + S20W two-hybrid fusion (designed binder) | -0.36 log2 | -0.97 log2 | 0.25 log2 | 0.17 log2 | 0.1 log2 | 0.24 log2 |  |  | 
10 | i53 + Q31M two-hybrid fusion (designed binder) | -1.74 log2 | -0.84 log2 | -2.63 log2 | 0.07 log2 | -0.05 log2 | 0.18 log2 |  |  | 
11 | i53 + T14N two-hybrid fusion (designed binder) | 2.76 log2 | 2.84 log2 | 2.69 log2 | 1.44 log2 | 1.5 log2 | 1.37 log2 |  |  | 
12 | i53 + K33V two-hybrid fusion (designed binder) | 2.45 log2 | 2.71 log2 | 2.19 log2 | 1.75 log2 | 2.03 log2 | 1.46 log2 |  |  | 
13 | i53 + M1N two-hybrid fusion (designed binder) | -0.25 log2 | -0.37 log2 | -0.13 log2 | 0.02 log2 | -0.04 log2 | 0.08 log2 |  |  | 
14 | i53 + S57M two-hybrid fusion (designed binder) | 0.01 log2 | -0.11 log2 | 0.12 log2 | -0.04 log2 | -0.17 log2 | 0.09 log2 |  |  | 
15 | i53 + P38S two-hybrid fusion (designed binder) | 0.22 log2 | 0.19 log2 | 0.25 log2 | 0.27 log2 | 0.56 log2 | -0.02 log2 |  |  | 
16 | i53 + N25E two-hybrid fusion (designed binder) | 0.56 log2 | 0.28 log2 | 0.84 log2 | 0.62 log2 | 0.61 log2 | 0.64 log2 |  |  | 
17 | i53 + K63F two-hybrid fusion (designed binder) | -0.02 log2 | -0.01 log2 | -0.02 log2 | 0.08 log2 | -0.06 log2 | 0.22 log2 |  |  | 
18 | i53 + S20N two-hybrid fusion (designed binder) | 0.31 log2 | 0 log2 | 0.61 log2 | -0.25 log2 | 0.12 log2 | -0.61 log2 |  |  | 

Row | Substance | Experiment 1 Average Enrichment | Experiment 1 Rep 1 Enrichment | Experiment 1 Rep 2 Enrichment | Experiment 2 Average Enrichment | Experiment 2 Rep 1 Enrichment | Experiment 2 Rep 2 Enrichment | Percent GFP Positive Rep 1 | Percent GFP Positive Rep 2 | Percent GFP Positive Rep 3
19 | i53 + E18N two-hybrid fusion (designed binder) | -0.45 log2 | 0.34 log2 | -1.23 log2 | 0.1 log2 | -0.64 log2 | 0.85 log2 |  |  | 
20 | i53 + K29R two-hybrid fusion (designed binder) | -0.01 log2 | -0.07 log2 | 0.05 log2 | 0.28 log2 | 0.45 log2 | 0.1 log2 |  |  | 
21 | i53 + N25R two-hybrid fusion (designed binder) | 0.31 log2 | 0.25 log2 | 0.36 log2 | 0.29 log2 | 0.25 log2 | 0.34 log2 |  |  | 
22 | i53 + S20A two-hybrid fusion (designed binder) | 0.14 log2 | 0.3 log2 | -0.02 log2 | -0.26 log2 | -0.26 log2 | -0.25 log2 |  |  | 
23 | i53 + M1T two-hybrid fusion (designed binder) | 0.68 log2 | 0.79 log2 | 0.56 log2 | 0.61 log2 | 0.63 log2 | 0.6 log2 |  |  | 
24 | i53 + R74C two-hybrid fusion (designed binder) | 0.81 log2 | 0.64 log2 | 0.99 log2 | 0.65 log2 | 0.68 log2 | 0.63 log2 |  |  | 
25 | i53 + K33N two-hybrid fusion (designed binder) | 0.29 log2 | 0.48 log2 | 0.1 log2 | 0.24 log2 | 0.06 log2 | 0.41 log2 |  |  | 
26 | i53 + R42F two-hybrid fusion (designed binder) | 1.88 log2 | 1.99 log2 | 1.77 log2 | 1.26 log2 | 1.4 log2 | 1.13 log2 |  |  | 
27 | i53 + E34T two-hybrid fusion (designed binder) | 0.12 log2 | 2.15 log2 | -1.91 log2 | -3.54 log2 | -3.26 log2 | -3.83 log2 |  |  | 
28 | i53 + R54Q two-hybrid fusion (designed binder) | 0.14 log2 | -0.05 log2 | 0.32 log2 | -0.02 log2 | -0.04 log2 | 0 log2 |  |  | 
29 | i53 + N25L two-hybrid fusion (designed binder) | 0.43 log2 | 0.47 log2 | 0.39 log2 | 0.23 log2 | 0.26 log2 | 0.19 log2 |  |  | 
30 | i53 + K33L two-hybrid fusion (designed binder) | 2.53 log2 | 2.4 log2 | 2.65 log2 | 1.6 log2 | 1.67 log2 | 1.53 log2 |  |  | 
31 | i53 + K29M two-hybrid fusion (designed binder) | 1.6 log2 | 1.72 log2 | 1.48 log2 | 0.9 log2 | 1.23 log2 | 0.57 log2 | 23.9% | 16.5% | 17.8%
32 | i53 + N25G two-hybrid fusion (designed binder) | 0.71 log2 | 1.06 log2 | 0.35 log2 | 0.38 log2 | 0.57 log2 | 0.19 log2 |  |  | 
33 | i53 + T14H two-hybrid fusion (designed binder) | 2.56 log2 | 2.63 log2 | 2.5 log2 | 1.65 log2 | 1.47 log2 | 1.84 log2 |  |  | 
34 | i53 + S49C two-hybrid fusion (designed binder) | 0.6 log2 | 0.95 log2 | 0.24 log2 | -0.18 log2 | -0.04 log2 | -0.31 log2 |  |  | 
35 | i53 + E16T two-hybrid fusion (designed binder) | 0.88 log2 | 1.12 log2 | 0.64 log2 | 0.3 log2 | 0.27 log2 | 0.33 log2 |  |  | 
